Measured values: patent US20240117047A1 (University of California, published 2024)
Residue numbers refer to the chain shown, from its start.

B1: UC-102 (antibody, V domains shown)
VH: DVHLQESGPGLVKPSQSLSVTCTVTGYSITGSYSWNWIRQFPGNKLEWMGYIHSSGTTNYNPSLKSRISFTRDTSKNQLFLQLNSVTTEDTATYYCTRGFAYWGQGTLVTVSA
VL: NIVMTQSPSSMSASLGDRITITCQATQDIVKNLNWYQQKPGKPPSFLIYYTTELAEGVPSRFSGSGSGSDYSLTISNLESEDFADYYCLQFYEFPPTFGAGTKLELKR
notes: Mouse-derived anti-hROR1 mAb, detected with anti-mouse IgG; also called UC-102 mAb
B2: UC-104 (antibody, V domains shown)
VH: EVQLLETGGGLVQPGGSRKLSCAASGFTFSNYGMHWVRQAPGKGLEWVAHISRYSDTIYYADAVKGRFTISRDNAKNTLFLQMTTLRSEDTAIYYCTSAMDYWGQGTSVTVSS
VL: DIQMTQTTSSLSASLGDRVTISCRASQDISNYLNWFQQKPDGTIKLLIYYTSRLHSGVPSRFSGSGSGTDYSLTISNLEQEDIATYFCQQGNTLPFTFGSGTKLEIKR
notes: Mouse-derived anti-hROR1 mAb, detected with anti-mouse IgG; also called UC-104 mAb
B3: UC-105 (antibody, V domains shown)
VH: EVKLVESGGGLVQPGGSRKLSCAASGFTFSSYGMHWIRQTPDKGLEWVAYISSNSDHIFYTDTVKGRFTISRDNAKNTLFLQMTSLRSEDTAMYYCASRMDYWGQGTSVTVSS
VL: B2 VL with Y32H, F36Y, I44V, E81G, N92S, F96Y, S100G
notes: Mouse-derived anti-hROR1 mAb, detected with anti-mouse IgG
B4: UC-103 (antibody, V domains shown)
VH: EIQLQQSGPVLVKPGASVKVSCKASGYAFTAYNIHWVRQSHGKRLEWIGSFDPYDGGSSYNQKFKDKATLTVDKSSTTAYMHLNSLTSEDSAVYYCARGWYYFDYWGHGTTLTVSS
VL: DVQITQSPSYLAASPGETITINCRASKSISKYLAWYQEKPGKTNKLLIYSGSTLQSGIPSRFRGSGSGTDFTLTISSLEPEDFAMYYCQQHDESPYTFGEGTKLEIKR
notes: Mouse-derived anti-hROR1 mAb, detected with anti-mouse IgG; also called UC-103 mAb
B5: UC-101 (antibody, V domains shown)
VH: EVQLLETGGGLVQPGGSRKLSCVASGFSFSSYGMHWVRQAPEKGLEWVAYIGGTSNTIYFADTVKGRFTISRDNAKNTLFLQMASLRSEDTAMYYCARTNLLGMDYWGQGTSVTVSS
VL: QIVLTQSPTIMSASPGEKVTMTCSASSSVSDMYWYQQKPGSSPRLLIYDTSNLASGVPVRFSGSGSGTSYSLTISRMEAEDAATYYCQQWISYTFGGGTKLEIKR
notes: Mouse-derived anti-hROR1 mAb, detected with anti-mouse IgG; also called UC-101 mAb
B6: UC-107 (antibody, V domains shown)
VH: QIQLVQSGPELKKPGETVKISCKASGYTFTNYPIHWVKQAPGKGLKWMGWINTYSGVPTYADDFKGRFAFSLETSANTAYLQLNNLRNEDMATYFCARGDSSLFDYWGQGTTLTVSS
VL: DVQMIQSPSSLSASLGERVSLTCRASQEISGYLIWLQQKPDGTITRLIYAASTLDSGVPKRFSGSRSGSDYSLTISSLESEDFADYYCLQYTSYPLTFGAGTKLELKR
notes: Mouse-derived anti-hROR1 mAb, detected with anti-mouse IgG; also called UC-107 mAb
B7: UC-106 (antibody, V domains shown)
VH: B6 VH with N31Y, L83I
VL: B6 VL with D1G, V2H, I5T, T45K, D55N
notes: as for B3

What follows are binders tested against T1, extracellular domain of human ROR1 (human, UniProt Q01973 30-406) (assay: ELISA screening).
T1 construct: also called hROR1; hROR1 extracellular recombinant protein
T1 sequence (Q01973 30-406 limits assumed): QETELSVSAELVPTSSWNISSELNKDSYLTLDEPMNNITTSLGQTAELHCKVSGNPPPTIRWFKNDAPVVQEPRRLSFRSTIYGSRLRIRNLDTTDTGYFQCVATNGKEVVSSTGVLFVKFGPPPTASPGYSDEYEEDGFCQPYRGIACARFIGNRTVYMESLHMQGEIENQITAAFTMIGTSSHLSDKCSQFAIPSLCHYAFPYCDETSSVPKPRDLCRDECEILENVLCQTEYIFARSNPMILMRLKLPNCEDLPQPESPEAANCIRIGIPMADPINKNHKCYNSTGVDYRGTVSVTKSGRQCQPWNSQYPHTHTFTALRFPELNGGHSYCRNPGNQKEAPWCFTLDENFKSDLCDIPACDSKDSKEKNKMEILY

Row | binding result | Binder
1 | binds | B1
2 | binds | B2
3 | binds | B3
4 | binds | B4
5 | binds | B5
6 | binds | B6

These binders were tested against T1, extracellular domain of human ROR1 (assay: blot, non-denaturing gel).
Excerpt: (§1) Schematics of the chimeric constructs of the extracellular portion of ROR1 used to map the domain of hROR1 bound by each of the mAb in this disclosure. The dark regions of each construct indicate hROR1, light portions denote regions of mROR1, and hatched portions indicate deleted regions. Arrows mark the boundaries between the mouse and hROR1 regions for constructs #5, #6, #13 and #14, which depict the first 160 amino acids of the extracellular region that includes the Ig-like domain. The amino acids that differ between human and mROR1 are indicated by the single letter abbreviation at that position. (B) Each of these recombinant proteins were separated in non-denaturing polyacrylamide gel, transferred onto nylon, probed with the anti-hROR1 mAb indicated on the left, and detected with an anti-mouse IgG antibody conjugated with horse radish peroxidase. […] None of the antibody bind to mROR1.

Row | binding result | Binder
7 | binds | B7

The binders below were run against T2, hROR1 with a single amino acid substitution at position 138 (glutamic acid to lysine) (human, UniProt Q01973 30-406) (assay: binding to point-mutated hROR1).
T2 construct: Recombinant mutant of the hROR1 extracellular domain; also called hROR1 E138K
T2 sequence (Q01973 30-406 E138K limits assumed): as the sequence (Q01973 30-406 limits assumed) above, with E109K counted along it

Row | binding result | Binder
8 | no binding | B1
9 | no binding | B2
10 | no binding | B3
11 | no binding | B4
12 | no binding | B5

What follows are binders tested against T3, hROR1 with a single amino acid substitution at position 346 (threonine to serine) (human, UniProt Q01973 30-406) (assay: binding to point-mutated hROR1).
T3 construct: Recombinant mutant of the hROR1 extracellular domain; also called hROR1 T346S
T3 sequence (Q01973 30-406 T346S limits assumed): as the sequence (Q01973 30-406 limits assumed) above, with T317S counted along it

Row | binding result | Binder
13 | no binding | B6

What follows are binders tested against T3, hROR1 with a single amino acid … (assay: binding to point-mutated hROR1; blot in FIG. 6).
Excerpt: Neither of the antibody reacts with mROR1 protein. […] We generated recombinant hROR1 proteins having either the mouse or human amino acid residue at this position only.

Row | binding result | Binder
14 | no binding | B7

Each binder was assayed against T4, extracellular domain of mouse ROR1 (mouse, UniProt Q9Z139 30-406) (assay: blot of recombinant protein, non-denaturing gel).
T4 construct: also called mROR1; mROR1 protein
T4 sequence (Q9Z139 30-406 limits assumed): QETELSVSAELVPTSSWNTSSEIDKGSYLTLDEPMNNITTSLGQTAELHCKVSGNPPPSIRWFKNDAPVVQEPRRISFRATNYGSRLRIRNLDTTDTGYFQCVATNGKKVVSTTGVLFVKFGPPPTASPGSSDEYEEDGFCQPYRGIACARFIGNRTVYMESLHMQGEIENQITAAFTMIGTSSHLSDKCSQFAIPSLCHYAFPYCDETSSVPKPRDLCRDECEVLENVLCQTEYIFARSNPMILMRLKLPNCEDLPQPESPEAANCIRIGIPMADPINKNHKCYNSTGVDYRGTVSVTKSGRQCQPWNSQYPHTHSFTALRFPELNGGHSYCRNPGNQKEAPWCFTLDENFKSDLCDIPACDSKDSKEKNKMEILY
Excerpt: as §1

Row | binding result | Binder
15 | no binding | B1
16 | no binding | B2
17 | no binding | B3
18 | no binding | B4
19 | no binding | B5
20 | no binding | B7
21 | no binding | B6
